Test results as given in patent US7049122B2, “Mutant-type lipases and applications thereof” (priority 2001, dated 2006).

Legend:
[1] = biological target: Staphylococcus epidermidis strain 9 lipase, wild-type (recombinant 43 kDa "Lys-303" lipase, C-terminal His-tag), SEQ ID NO:14 (Staphylococcus epidermidis, UniProt P0C0R3); test: Kinetic analysis of hydrolysis of p-nitrophenyl butyrate (p-nitrophenol formation), wild-type lipase; type: biochemical; details: substrate p-nitrophenyl butyrate, 50 mM phosphate buffer (pH 6.0), 37° C., means ± standard error, three experiments
From the text: (§1) A fragment of the gehC gene (designated “Lys-303” gene), which encoded an amino acid sequence corresponding to that of the S. epidermidis lipase following proteolytic cleavage between Ala-302 and Lys-303, was synthesized by polymerase chain reaction (PCR) using a chromosomal DNA from a S. epidermidis isolated from a patient in Chang-Gung Hospital (Keelung, Taiwan) as template. The gehC gene is a Staphylococcus epidermidis strain 9 lipase gene. The gene consisted of a single open reading frame of 2064 nucleotides, which encoded a protein of 688 amino acids with a predicted molecular mass of 77 kDa. The Lys-303 gene (SEQ ID NO:13) encoded an active lipase (SEQ ID NO:14), which was about 43 kDa in molecular weight. The Lys-303-encoded lipase is also known as the “43 kDa” or “wild-type” lipase. Two primers: an N-terminal primer of SEQ ID NO:1 (5′-[…]-3′) and a C-terminal primer of SEQ ID NO:2 (5′-[…]-3′) were used in this synthetic process.
(§2) The purified enzymes and substrate p-nitrophenyl butyrate (2.64 mM predissolved in 2.1% Triton X-100) were mixed in 50 mM phosphate buffer (pH 6.0). The reactions were carried out at 37° C. for 15 min and were terminated by the addition of acetone (1:1, v/v) (Kazlauskas 1994). The absorption values of the reaction product (p-nitrophenol) at 346 nm were determined, and the hydrolase activity (a general indicator for the lipolytic activity) of the purified enzymes was obtained, after converting the absorption values into mmols of p-nitrophenol quantity (at pH 6.0) curve. The molar extinction coefficient of p-nitrophenol under this condition was 2988[…].
(§3) The mutation apparently affected the enzyme's ability to stabilize the transition state more than it affected the substrate binding ability of the enzyme. […] The kcat/Km ratio is the pertinent parameter to determine kinetic efficiency of an enzyme.

[2] = biological target: Staphylococcus epidermidis strain 9 lipase variant V649I (Val-649 to Ile), SEQ ID NO:17 (Staphylococcus epidermidis, UniProt P0C0R3, V649I); test: Kinetic analysis of hydrolysis of p-nitrophenyl butyrate (p-nitrophenol formation), mutant V649I; type: biochemical; details: V649I vs wild-type; substrate p-nitrophenyl butyrate
From the text: (§4) The mutant-type lipase is preferably obtained from site-directed mutagenesis of a lipase isolated from Staphylococcus, most favorably Staphylococcus epidermidis. The mutant lipase from Stapylococcus epidermidis that has an alanine residue replacing the methionine residue which immediately follows the serine residue of the Ser-His-Asp catalytic triad has the amino acid sequence of SEQ ID NO: 15. The mutant lipase from Stapylococcus epidermidis that has an isoleucine residue replacing the valine residue which immediately follows the histidine residue of the Ser-His-Asp catalytic triad has the amino acid sequence of SEQ ID NO: 17.
as §2

S. hyicus lipase = details: Chang et al. (1996); cited from earlier work
[3] = biological target: Staphylococcus epidermidis strain 9 lipase variant H648K (His-648 to Lys), SEQ ID NO:16 (Staphylococcus epidermidis, UniProt P0C0R3, H648K); test: Kinetic analysis of hydrolysis of p-nitrophenyl butyrate (p-nitrophenol formation), mutant H648K; type: biochemical; details: H648K vs wild-type, substrate p-nitrophenyl butyrate
Description: as §2

[4] = biological target: Staphylococcus epidermidis strain 9 lipase variant M419A (Met-419 to Ala), SEQ ID NO:15 (Staphylococcus epidermidis, UniProt P0C0R3, M419A); test: Kinetic analysis of hydrolysis of p-nitrophenyl butyrate (p-nitrophenol formation), mutant M419A; type: biochemical; details: M419A vs wild-type; substrate p-nitrophenyl butyrate
From the text: as §4, §2, §3

[5] = tested on: CCCC(=O)Oc1ccc([N+](=O)[O-])cc1; test: Kinetic analysis of hydrolysis of p-nitrophenyl butyrate (p-nitrophenol formation), mutant H648K; type: biochemical, Staphylococcus epidermidis; details: other: H648K, substrate p-nitrophenyl butyrate, 50 mM phosphate buffer (pH 6.0), 37° C., means ± standard error, three experiments
Description: as §2

[6] = tested on: CCCC(=O)Oc1ccc([N+](=O)[O-])cc1; test: Kinetic analysis of hydrolysis of p-nitrophenyl butyrate (p-nitrophenol formation), mutant M419A; type: biochemical, Staphylococcus epidermidis; details: other: M419A, substrate p-nitrophenyl butyrate, 50 mM phosphate buffer (pH 6.0), 37° C., means ± standard error, three experiments
From the text: as §4, §2, §3

[7] = tested on: CCCC(=O)Oc1ccc([N+](=O)[O-])cc1; test: Kinetic analysis of hydrolysis of p-nitrophenyl butyrate (p-nitrophenol formation), mutant V649I; type: biochemical, Staphylococcus epidermidis; details: other: V649I, substrate p-nitrophenyl butyrate, 50 mM phosphate buffer (pH 6.0), 37° C., means ± standard error, three experiments
From the text: as §4, §2

[8] = tested on: CCCC(=O)Oc1ccc([N+](=O)[O-])cc1; test: Kinetic analysis of hydrolysis of p-nitrophenyl butyrate (p-nitrophenol formation), wild-type lipase; type: biochemical, Staphylococcus epidermidis; details: other: wild-type, substrate p-nitrophenyl butyrate, 50 mM phosphate buffer (pH 6.0), 37° C., means ± standard error, three experiments
From the text: as §1, §2, §3

Chain of Staphylococcus epidermidis strain 9 lipase variant H648K (His-648 to Lys), SEQ ID NO:16 (P0C0R3 303-688 H648K): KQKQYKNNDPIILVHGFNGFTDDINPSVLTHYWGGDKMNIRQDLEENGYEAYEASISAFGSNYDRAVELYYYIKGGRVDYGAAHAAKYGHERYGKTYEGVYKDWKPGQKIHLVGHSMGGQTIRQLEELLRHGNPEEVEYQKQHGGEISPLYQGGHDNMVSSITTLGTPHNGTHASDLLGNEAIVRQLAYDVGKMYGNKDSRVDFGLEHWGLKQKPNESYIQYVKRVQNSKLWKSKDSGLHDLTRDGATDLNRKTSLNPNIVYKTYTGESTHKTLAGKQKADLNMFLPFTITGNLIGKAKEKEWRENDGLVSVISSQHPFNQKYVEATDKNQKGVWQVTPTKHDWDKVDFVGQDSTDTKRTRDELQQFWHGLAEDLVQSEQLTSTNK
Chain of Staphylococcus epidermidis strain 9 lipase variant V649I (Val-649 to Ile), SEQ ID NO:17 (P0C0R3 303-688 V649I): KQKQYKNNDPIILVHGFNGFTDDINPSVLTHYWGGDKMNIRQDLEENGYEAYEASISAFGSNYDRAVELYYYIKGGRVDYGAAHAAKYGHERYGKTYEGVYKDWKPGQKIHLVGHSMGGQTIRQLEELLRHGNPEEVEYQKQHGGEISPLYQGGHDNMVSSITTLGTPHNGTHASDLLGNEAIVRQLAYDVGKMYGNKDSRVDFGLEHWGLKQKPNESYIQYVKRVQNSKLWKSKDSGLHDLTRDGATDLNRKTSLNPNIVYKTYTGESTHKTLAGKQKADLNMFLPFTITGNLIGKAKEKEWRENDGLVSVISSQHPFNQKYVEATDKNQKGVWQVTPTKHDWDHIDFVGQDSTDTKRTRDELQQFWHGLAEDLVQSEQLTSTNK
Chain of Staphylococcus epidermidis strain 9 lipase variant M419A (Met-419 to Ala), SEQ ID NO:15 (P0C0R3 303-688 M419A): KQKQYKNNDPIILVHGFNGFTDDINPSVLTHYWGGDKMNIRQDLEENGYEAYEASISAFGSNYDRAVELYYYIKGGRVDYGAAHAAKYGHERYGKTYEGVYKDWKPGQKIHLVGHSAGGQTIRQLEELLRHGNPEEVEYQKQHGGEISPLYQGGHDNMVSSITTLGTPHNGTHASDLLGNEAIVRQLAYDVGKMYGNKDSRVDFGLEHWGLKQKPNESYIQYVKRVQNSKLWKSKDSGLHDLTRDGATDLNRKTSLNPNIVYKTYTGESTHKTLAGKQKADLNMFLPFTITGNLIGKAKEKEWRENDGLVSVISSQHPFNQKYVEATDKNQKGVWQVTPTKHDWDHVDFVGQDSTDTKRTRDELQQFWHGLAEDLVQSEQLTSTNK
Chain of Staphylococcus epidermidis strain 9 lipase, wild-type (recombinant 43 kDa "Lys-303" lipase, C-terminal His-tag), SEQ ID NO:14 (P0C0R3 303-688): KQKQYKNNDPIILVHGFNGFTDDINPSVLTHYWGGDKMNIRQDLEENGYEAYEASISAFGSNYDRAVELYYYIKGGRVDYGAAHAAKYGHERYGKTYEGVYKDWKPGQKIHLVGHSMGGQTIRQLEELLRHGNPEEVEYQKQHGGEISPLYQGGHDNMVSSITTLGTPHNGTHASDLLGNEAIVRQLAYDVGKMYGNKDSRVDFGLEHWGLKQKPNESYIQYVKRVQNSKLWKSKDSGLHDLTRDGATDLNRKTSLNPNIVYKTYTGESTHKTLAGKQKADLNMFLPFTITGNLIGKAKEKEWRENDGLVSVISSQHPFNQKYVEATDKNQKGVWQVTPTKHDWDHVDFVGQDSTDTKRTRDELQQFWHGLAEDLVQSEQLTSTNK

Q: With `CCCC(=O)Oc1ccc([N+](=O)[O-])cc1` [p-nitrophenyl butyrate] as the compound, how does the kcat [1] read?
A: 25.1 s⁻¹

Q: What about the “increase in kcat in comparison with the wild-type enzyme” value [2] of the same compound?
A: 13.4 fold

Q: What about the “increase in the kcat/Km in comparison with the wild-type enzyme” value [2] of the same compound?
A: 4.0 fold

Q: And the Km (S. hyicus lipase)?
A: 2070 µM

Q: And the kcat (S. hyicus lipase)?
A: 0.53 s⁻¹

Q: And the kcat/Km (S. hyicus lipase)?
A: 257 M⁻¹ s⁻¹

Q: And the “kcat compared with the wild-type enzyme (decreased to)” value [3]?
A: 10.4%

Q: What about the “change in the Km compared with the wild-type enzyme” value ([3]; in words) of the same compound?
A: little change

Q: And the “increase in catalytic efficiency (kcat/Km) in comparison with the wild-type enzyme” value [4]?
A: 2.0 fold

Q: With “Staphylococcus epidermidis strain 9 lipase variant H648K (His-648 to Lys), SEQ ID NO:16 (Staphylococcus epidermidis; H648K)” as the compound, how does the Km [5] read?
A: 950 ± 350 µM

Q: What about the kcat [5] of the same compound?
A: 2.6 ± 0.9 s⁻¹

Q: What about the kcat/Km [5] of the same compound?
A: 2700 M⁻¹ s⁻¹

Q: Which Km [6] does the source give for “Staphylococcus epidermidis strain 9 lipase variant M419A (Met-419 to Ala), SEQ ID NO:15 (Staphylococcus epidermidis; M419A)” here?
A: 3970 ± 120 µM

Q: What about the kcat [6] of the same compound?
A: 218 ± 14 s⁻¹

Q: What about the kcat/Km [6] of the same compound?
A: 54800 M⁻¹ s⁻¹

Q: Which Km [7] does the source give for “Staphylococcus epidermidis strain 9 lipase variant V649I (Val-649 to Ile), SEQ ID NO:17 (Staphylococcus epidermidis; V649I)” here?
A: 3020 ± 210 µM

Q: What about the kcat [7] of the same compound?
A: 336 ± 15.7 s⁻¹

Q: And the kcat/Km [7]?
A: 111000 M⁻¹ s⁻¹

Q: With “Staphylococcus epidermidis strain 9 lipase, wild-type (recombinant 43 kDa "Lys-303" lipase, C-terminal His-tag), SEQ ID NO:14 (Staphylococcus epidermidis)” as the compound, how does the Km [8] read?
A: 900 ± 80 µM

Q: And the kcat [8]?
A: 25.1 ± 0.6 s⁻¹

Q: And the kcat/Km [8]?
A: 27900 M⁻¹ s⁻¹
